Measurements: doi:10.1101/2025.03.26.645513 (bioRxiv, 2025)

B1: Escherichia coli O-acetylserine sulfhydrylase CysK (enzyme, UniProt P0ABK5 1-323, looked up)
chain: MSKIFEDNSLTIGHTPLVRLNRIGNGRILAKVESRNPSFSVKCRIGANMIWDAEKRGVLKPGVELVEPTSGNTGIALAYVAAARGYKLTLTMPETMSIERRKLLKALGANLVLTEGAKGMKGAIQKAEEIVASNPEKYLLLQQFSNPANPEIHEKTTGPEIWEDTDGQVDVFIAGVGTGGTLTGVSRYIKGTKGKTDLISVAVEPTDSPVIAQALAGEEIKPGPHKIQGIGAGFIPANLDLKLVDKVIGITNEEAISTARRLMEEEGILAGISSGAAVAAALKLQEDESFTNKNIVVILPSSGERYLSTALFADLFTEKELQQ

Legend:
[1] = target: Neisseria gonorrhoeae O-acetylserine sulfhydrylase CysK (Neisseria gonorrhoeae); experiment: SEC
[2] = target: Neisseria gonorrhoeae O-acetylserine sulfhydrylase CysK (Neisseria gonorrhoeae); experiment: SEC-SAXS
[3] = target: the molecule itself; experiment: SEC
[4] = target: B1; experiment: SEC
[5] = target: the molecule itself; experiment: SEC-SAXS

Molecule	stoichiometry N [3]	stoichiometry N [5]	also measured
Neisseria gonorrhoeae O-acetylserine sulfhydrylase CysK (enzyme)			stoichiometry N [1]: 2; stoichiometry N [2]: 2
Escherichia coli serine acetyltransferase CysE (enzyme) MSCEELEIVWNNIKAEARTLADCEPMLASFYHATLLKHENLGSALSYMLANKLSSPIMPAIAIREVVEEAYAADPEMIASAACDIQAVRTRDPAVDKYSTPLLYLKGFHALQAYRIGHWLWNQGRRALAIFLQNQVSVTFQVDIHPAAKIGRGIMLDHATGIVVGETAVIENDVSILQSVTLGGTGKSGGDRHPKIREGVMIGAGAKILGNIEVGRGAKIGAGSVVLQPVPPHTTAAGVPARIVGKPDSDKPSMDMDQHFNGINHTFEYGDGI	6		binding result [4]: binds
Staphylococcus aureus O-acetylserine sulfhydrylase CysK (enzyme, UniProt P63870 1-310, looked up) MAQKPVDNITQIIGGTPVVKLRNVVDDNAADVYVKLEYQNPGGSVKDRIALAMIEKAEREGKIKPGDTIVEPTSGNTGIGLAFVCAAKGYKAVFTMPETMSQERRNLLKAYGAELVLTPGSEAMKGAIKKAKELKEEHGYFEPQQFENPANPEVHELTTGPELLQQFEGKTIDAFLAGVGTGGTLSGVGKVLKKEYPNIEIVAIEPEASPVLSGGEPGPHKLQGLGAGFIPGTLNTEIYDSIIKVGNDTAMEMSRRVAKEEGILAGISSGAAIYAAIQKAKELGKGKTVVTVLPSNGERYLSTPLYSFDD		2	
B1		2	
Neisseria gonorrhoeae serine acetyltransferase CysE (enzyme) MKKNHLNTTGFDLWHTIREETAAAAAAEPMLASFLHQTVLRHESLGSVLAYHLSSKLGSPIMDVRALFEIYQQALGSDTQISKCVEADLKAIYERDPACDEYSLPLLYFKGFHAIQAHRINHRLYLDGRKTLAYFLQNRMSEVFGVDIHPAARLGYGLMLDHATGFVAGETAVLGNNISILHGVTLGGSGKEGGDRHPKIGDGVMIGANASILGNIRIGSNAKIGAGSVVVSDVPPSITVVGVPAKPVARSLKTPSADMDQNIQFAEIDFMI	6		
